Measurements: US20250129140A1, “ANTI-HCMV ANTIBODIES AND ANTIGEN-BINDING FRAGMENTS THEREOF” (ICAHN SCHOOL OF MEDICINE AT MOUNT SINAI, priority 2021, published 2025)

Target: MHC class I on ARPE-19 cells (Homo sapiens)
Experiment: flow cytometry on ARPE-19 cells infected with AD169R (GFP reporter), 6 dpi, antibody 2 µg/mL, anti-mouse AF647 secondary

α-MHC-1 (W6/32) (antibody) gave a Q1, percent of cells GFP- and Alexa Fluor 647+ of 86.9% and a Q2, percent of cells GFP+ and Alexa Fluor 647+ of 12.7%.
